Assays:
Test in all cases: sandwich ELISA with mis-matched antigens
hHER-2-Fc = target: T1, hHER-2-Fc (human, UniProt P04626 23-652)
T1 construct: Bought (R&D systems); Coated on the plate; not shown: Fc of the bought fusion protein
Protocol: (§1) The dual-binding activity of the same synthesized IgG BsAbs is assessed using a sandwich ELISA. […] Sandwich ELISAs are developed for detecting the four different BsAb test articles; one for detecting anti-HER-2/anti-EGFR BsAb activity, one for detecting anti-HER-2/anti-LTPR BsAb activity, one for detecting anti-cMET/anti-EGFR BsAb activity and one for detecting anti-cMET/anti-LTPR BsAb activity. For all ELISAs, clear 96-well round bottom high binding Immulon microtiter plates (Greiner bio-one, cat #650061) are coated overnight at 2-8° C. with 50 μL/well 1 μg/mL hHER-2-Fc or 1 μg/mL hHGFR(cMet)-Fc (both from R&D systems) in a 50 mM Na2CO3 pH 8.3 buffer. The plates are washed 4 times with PBST and blocked with 200 μL/well casein buffer (Pierce) for 1 hr at room temperature. The plates are then washed 4 times with PBST and the parental IgG controls or BsAb IgG test articles are added at 50 μL/well and […] and serially diluted 1:3 down the plate. The controls and test articles are incubated on the plate for 1 hr at room temperature. The plates are then washed 4 times with PBST and 50 μL/well 1 μg/mL hEGFR-Fc-biotin or hLTβR-Fc-biotin (both from R&D systems) is added for 1 hr at room temperature. The plates are then washed 4 times with PBST followed by the addition of a 50 μL/well streptavidin-AP (Jackson Immunoresearch Labs Cat. #016-050-084) diluted 1:1000 in casein buffer. The streptavidin-AP is incubated in each well for 1 hr at room temperature. The plates are then washed 4 times with PBST and 100 μL/well 1-step PNPP substrate is added (Thermo Scientific Cat. #37621). After approximately 5-15 minutes, plates are read for Absorbance (405 nm) using a SPECTRAMAX® UV plate reader (Molecular Devices). Biotin-labeling of the hEGFR-Fc and hLTβR-Fc proteins is performed using EZ-LINK™ Sulfo-NHS-LC-Biotin (Thermo Scientific Cat. #21327) according to the manufacturer's protocol.

hEGFR-Fc-biotin = target: T2, hEGFR-Fc-biotin (human, UniProt P00533 25-645, biotin-labelled with EZ-LINK Sulfo-NHS-LC-Biotin)
T2 construct: Bought (R&D systems); Detection antigen of the sandwich; not shown: Fc of the bought fusion protein
Protocol: as §1

hHGFR(cMet)-Fc = target: T3, hHGFR(cMet)-Fc (human, UniProt P08581 25-932)
T3 construct: Bought (R&D systems); Coated on the plate; not shown: Fc of the bought fusion protein
Protocol: as §1

T3 sequence (P08581 25-932): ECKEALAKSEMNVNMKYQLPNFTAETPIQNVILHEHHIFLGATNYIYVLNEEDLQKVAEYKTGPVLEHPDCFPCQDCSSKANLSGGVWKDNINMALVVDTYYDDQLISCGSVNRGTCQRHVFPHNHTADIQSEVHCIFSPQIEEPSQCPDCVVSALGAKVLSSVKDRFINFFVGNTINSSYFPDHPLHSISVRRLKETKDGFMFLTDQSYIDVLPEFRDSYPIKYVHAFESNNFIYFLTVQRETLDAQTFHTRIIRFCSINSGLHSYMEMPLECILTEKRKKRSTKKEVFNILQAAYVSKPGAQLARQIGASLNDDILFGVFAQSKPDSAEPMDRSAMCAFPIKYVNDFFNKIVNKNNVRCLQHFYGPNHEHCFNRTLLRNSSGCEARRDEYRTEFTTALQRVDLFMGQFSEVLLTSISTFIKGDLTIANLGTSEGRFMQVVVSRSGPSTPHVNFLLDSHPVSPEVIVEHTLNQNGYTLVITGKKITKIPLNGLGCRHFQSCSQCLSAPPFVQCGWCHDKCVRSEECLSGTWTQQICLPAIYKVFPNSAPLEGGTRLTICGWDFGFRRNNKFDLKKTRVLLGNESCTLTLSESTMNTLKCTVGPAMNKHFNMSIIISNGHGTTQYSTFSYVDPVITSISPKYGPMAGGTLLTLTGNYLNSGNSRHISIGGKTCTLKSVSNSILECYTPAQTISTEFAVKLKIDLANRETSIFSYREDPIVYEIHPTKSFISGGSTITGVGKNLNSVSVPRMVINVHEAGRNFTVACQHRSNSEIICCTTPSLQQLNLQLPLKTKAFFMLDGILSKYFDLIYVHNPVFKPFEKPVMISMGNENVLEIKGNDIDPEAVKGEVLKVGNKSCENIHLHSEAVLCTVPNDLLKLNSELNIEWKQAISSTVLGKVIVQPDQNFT

binding result (hHER-2-Fc) | binding result (hEGFR-Fc-biotin) | binding result (hHGFR(cMet)-Fc) | Binder
no binding | no binding | – | MetMAb × BHA10 IgG BsAb, CH1/Cκ design 14.3.1.2 (bispecific antibody, Human IgG1; also called MetMAb × BHA10 14.3.1.2) heavy 1: EVQLVESGGGLVQPGGSLRLSCAASGYTFTSYWLHWVRKAPGKGLEWVGMIDPSNSDTRFNPEFKDRFTISADTSKNTAYLQMNSLRAEDTAVYYCATYRSYVTPLDYWGQGTLVTVSSASTKGPSVFPLAPSSKSTSGGTAALGCLVADYFPEPVTVSWNSGALTSGVHTFPAVLQSSGLYSLGSVVTVPSSSLGTQTYICNVNHKPSNTKVDKKVEPKSCDKTHTCPPCPAPELLGGPSVFLFPPKPKDTLMISRTPEVTCVVVDVSHEDPEVKFNWYVDGVEVHNAKTKPREEQYQSTYRVVSVLTVLHQDWLNGKEYKCKVSNKALPAPIEKTISKAKGQPREPQVYTLPPSREEMTDNQVSLTCLVKGFYPSDIAVEWESNGQPENNYKTTPPVLMSDGSFFLASKLTVDKSRWQQGNVFSCSVMHEALHNHYTQKSLSLSPG light 1: RIQMTQSPSSLSASVGDRVTITCKSSQSLLYTSSQKNYLAWYQDKPGKAPKLLIYWASTRESGVPSRFSGSGSGTDFTLTISSLQPEDFATYYCQQYYAYPWTFGQGTKVEIKRTVAAPSVFIFPPSDEQLKSGTARVVCLLNNFYPREAKVQWKVDNALQSGNSQESVTEQDSKDSTYSLISTLTLSKADYEKHKVYACEVTHQGLSSPVTKSFNRGEC heavy 2: QVQLVQSGAEVKKPGSSVKVSCKASGYTFTTYYLHWVRYAPGQGLEWMGWIYPGNVHAQYNEKFKGRVTITADKSTSTAYMELSSLRSEDTAVYYCARSWEGFPYWGRGTTVTVSSASTKGPSVFPLAPSSKSTSGGTAALGCLVKDYFPEPVTVSWNSGALTSGVHTFPAVLQSSGLYSLSSVVTVPSSSLGTQTYICNVNHKPSNTKVDEKVEPKSCDKTHTCPPCPAPELLGGPSVFLFPPKPKDTLMISRTPEVTCVVVDVSHEDPEVKFNWYVDGVEVHNAKTKPREEQYQSTYRVVSVLTVLHQDWLNGKEYKCKVSNKALPAPIEKTISKAKGQPRRPRVYTLPPSREEMTKNQVSLVCLVKGFYPSDIAVEWESNGQPENNYKTTPPVLDSDGSFFLYSVLTVDKSRWQQGNVFSCSVMHEALHNHYTQKSLSLSPG light 2: DIQMTQSPSSLSASVGDRVTITCKASQNVGINVAWYQRKPGDAPKSLISSASYRYSGVPSRFSGSGSGTDFTLTISSLQPEDFATYFCQQYDTYPFTFGQGTKVEIKRTVAAPSVFIFPPSDKQLKSGTASVVCLLNNFYPREAKVQWKVDNALQSGNSQESVTEQDSKDSTYSLSSTLTLSKADYEKHKVYACEVTHQGLSSPVTKSFNRGEC
– | no binding | no binding | Pertuzumab × BHA10 IgG BsAb, CH1/Cκ Wild-Type (AB / H4DR variable domain designs, 7.8.60 CH3, N297Q) (bispecific antibody, Human IgG1; also called Pertuzumab × BHA10 Wild-Type) heavy 1: EVQLVESGGGLVQPGGSLRLSCAASGFTFTDYTMDWVRKAPGKGLEWVADVNPNSGGSIYNQEFKGRFTLSVDRSKNTLYLQMNSLRAEDTAVYYCARNLGPSFYFDYWGQGTLVTVSSASTKGPSVFPLAPSSKSTSGGTAALGCLVKDYFPEPVTVSWNSGALTSGVHTFPAVLQSSGLYSLSSVVTVPSSSLGTQTYICNVNHKPSNTKVDKKVEPKSCDKTHTCPPCPAPELLGGPSVFLFPPKPKDTLMISRTPEVTCVVVDVSHEDPEVKFNWYVDGVEVHNAKTKPREEQYQSTYRVVSVLTVLHQDWLNGKEYKCKVSNKALPAPIEKTISKAKGQPREPQVYTLPPSREEMTDNQVSLTCLVKGFYPSDIAVEWESNGQPENNYKTTPPVLMSDGSFFLASKLTVDKSRWQQGNVFSCSVMHEALHNHYTQKSLSLSPG light 1: RIQMTQSPSSLSASVGDRVTITCKASQDVSIGVAWYQDKPGKAPKLLIYSASYRYTGVPSRFSGSGSGTDFTLTISSLQPEDFATYYCQQYYIYPYTFGQGTKVEIKRTVAAPSVFIFPPSDEQLKSGTASVVCLLNNFYPREAKVQWKVDNALQSGNSQESVTEQDSKDSTYSLSSTLTLSKADYEKHKVYACEVTHQGLSSPVTKSFNRGEC heavy 2: QVQLVQSGAEVKKPGSSVKVSCKASGYTFTTYYLHWVRYAPGQGLEWMGWIYPGNVHAQYNEKFKGRVTITADKSTSTAYMELSSLRSEDTAVYYCARSWEGFPYWGRGTTVTVSSASTKGPSVFPLAPSSKSTSGGTAALGCLVKDYFPEPVTVSWNSGALTSGVHTFPAVLQSSGLYSLSSVVTVPSSSLGTQTYICNVNHKPSNTKVDKKVEPKSCDKTHTCPPCPAPELLGGPSVFLFPPKPKDTLMISRTPEVTCVVVDVSHEDPEVKFNWYVDGVEVHNAKTKPREEQYQSTYRVVSVLTVLHQDWLNGKEYKCKVSNKALPAPIEKTISKAKGQPRRPRVYTLPPSREEMTKNQVSLVCLVKGFYPSDIAVEWESNGQPENNYKTTPPVLDSDGSFFLYSVLTVDKSRWQQGNVFSCSVMHEALHNHYTQKSLSLSPG light 2: DIQMTQSPSSLSASVGDRVTITCKASQNVGINVAWYQRKPGDAPKSLISSASYRYSGVPSRFSGSGSGTDFTLTISSLQPEDFATYFCQQYDTYPFTFGQGTKVEIKRTVAAPSVFIFPPSDEQLKSGTASVVCLLNNFYPREAKVQWKVDNALQSGNSQESVTEQDSKDSTYSLSSTLTLSKADYEKHKVYACEVTHQGLSSPVTKSFNRGEC
– | no binding | no binding | Pertuzumab × BHA10 IgG BsAb, CH1/Cκ design 14.1.2 (bispecific antibody, Human IgG1; also called Pertuzumab × BHA10 14.1.2) heavy 1: EVQLVESGGGLVQPGGSLRLSCAASGFTFTDYTMDWVRKAPGKGLEWVADVNPNSGGSIYNQEFKGRFTLSVDRSKNTLYLQMNSLRAEDTAVYYCARNLGPSFYFDYWGQGTLVTVSSASTKGPSVFPLAPSSKSTSGGTAALGCLVADYFPEPVTVSWNSGALTSGVHTFPAVLQSSGLYSLSSVVTVPSSSLGTQTYICNVNHKPSNTKVDEKVEPKSCDKTHTCPPCPAPELLGGPSVFLFPPKPKDTLMISRTPEVTCVVVDVSHEDPEVKFNWYVDGVEVHNAKTKPREEQYQSTYRVVSVLTVLHQDWLNGKEYKCKVSNKALPAPIEKTISKAKGQPREPQVYTLPPSREEMTDNQVSLTCLVKGFYPSDIAVEWESNGQPENNYKTTPPVLMSDGSFFLASKLTVDKSRWQQGNVFSCSVMHEALHNHYTQKSLSLSPG light 1: RIQMTQSPSSLSASVGDRVTITCKASQDVSIGVAWYQDKPGKAPKLLIYSASYRYTGVPSRFSGSGSGTDFTLTISSLQPEDFATYYCQQYYIYPYTFGQGTKVEIKRTVAAPSVFIFPPSDKQLKSGTARVVCLLNNFYPREAKVQWKVDNALQSGNSQESVTEQDSKDSTYSLSSTLTLSKADYEKHKVYACEVTHQGLSSPVTKSFNRGEC heavy 2: QVQLVQSGAEVKKPGSSVKVSCKASGYTFTTYYLHWVRYAPGQGLEWMGWIYPGNVHAQYNEKFKGRVTITADKSTSTAYMELSSLRSEDTAVYYCARSWEGFPYWGRGTTVTVSSASTKGPSVFPLAPSSKSTSGGTAALGCLVKDYFPEPVTVSWNSGALTSGVHTFPAVLQSSGLYSLSSVVTVPSSSLGTQTYICNVNHKPSNTKVDKKVEPKSCDKTHTCPPCPAPELLGGPSVFLFPPKPKDTLMISRTPEVTCVVVDVSHEDPEVKFNWYVDGVEVHNAKTKPREEQYQSTYRVVSVLTVLHQDWLNGKEYKCKVSNKALPAPIEKTISKAKGQPRRPRVYTLPPSREEMTKNQVSLVCLVKGFYPSDIAVEWESNGQPENNYKTTPPVLDSDGSFFLYSVLTVDKSRWQQGNVFSCSVMHEALHNHYTQKSLSLSPG light 2: DIQMTQSPSSLSASVGDRVTITCKASQNVGINVAWYQRKPGDAPKSLISSASYRYSGVPSRFSGSGSGTDFTLTISSLQPEDFATYFCQQYDTYPFTFGQGTKVEIKRTVAAPSVFIFPPSDEQLKSGTASVVCLLNNFYPREAKVQWKVDNALQSGNSQESVTEQDSKDSTYSLSSTLTLSKADYEKHKVYACEVTHQGLSSPVTKSFNRGEC

Reference: patent US20240043552A1 (Eli Lilly, published 2024)
